Bridge positions count the residues as written; N and C are the ends. Ends that are not written are not given here.
Columns and labels:
murine EPO receptor = target: T1, murine EPO receptor (Mus musculus, UniProt P14753); assay: EPO dependent cell proliferation assay, FDC-P1/ER cells; assay type: cell-based
T1 construct: expressed in transfected cells; host or cells: FDC-P1/ER cells
T1 sequence (P14753 25-507): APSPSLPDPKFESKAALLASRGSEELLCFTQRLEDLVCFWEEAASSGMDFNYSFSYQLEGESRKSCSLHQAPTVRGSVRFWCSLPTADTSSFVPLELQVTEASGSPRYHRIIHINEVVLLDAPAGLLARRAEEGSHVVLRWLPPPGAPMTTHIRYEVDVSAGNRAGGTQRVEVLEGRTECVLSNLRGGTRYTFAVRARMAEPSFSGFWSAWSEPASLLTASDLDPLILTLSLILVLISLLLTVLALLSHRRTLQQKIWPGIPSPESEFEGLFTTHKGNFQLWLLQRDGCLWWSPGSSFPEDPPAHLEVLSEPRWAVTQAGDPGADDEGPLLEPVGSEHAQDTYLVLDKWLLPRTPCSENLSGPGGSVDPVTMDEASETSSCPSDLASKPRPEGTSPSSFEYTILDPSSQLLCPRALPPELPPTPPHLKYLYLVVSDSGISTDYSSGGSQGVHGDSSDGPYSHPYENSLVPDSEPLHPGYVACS
Description: After 24 hours, the cells were counted, resuspended at 800,000 cells/ml and dispensed at 40,000 cells/well. Stock solutions of the peptide dimer (5 mM in PBS) and peptide (10 mM in DMSO) were prepared and dispensed in triplicate to final concentrations of 1×10^-10 M through 1×10^-5 M and adjusted to a final volume of 0.2 ml. […] After a 42 hr incubation at 37° C. (ca. 2 cell doublings) 1 μCi/well of [^3 H] thymidine was added and the incubation continued for 6 hr at which time the cells were harvested and counted to assess [^3 H]thymidine incorporation as a measure of cell proliferation.

BDF1 mice = assay: Polycythemic exhypoxic mouse bioassay ([59Fe] incorporation into nascent red blood cells); assay type: in vivo; conditions: on a mole equivalent basis
Description: Peptides were assayed for in vivo activity in the polycythemic mouse bioassay adapted from the method described by Cotes and Bangham (1961), Nature 191: 1065-1067. BDF1 mice were allowed to acclimate to ambient conditions for 7-10 days. Body weights were determined for all animals. Low weight animals (<15 grams) were not used. Mice were introduced to hypobaric chambers with a 24 hour conditioning cycle consisting of 0.40% +/-0.02 atm. for 18 hours followed by 6 hours at ambient pressure for a total of 14 days. Following the 14 day period, mice were placed in ambient pressure for 72 hours prior to dosing. […] Peptide sample stock solutions (excluding peptide dimers) were first solubilized in dimethyl sulfoxide (DMSO). Control groups included one group of vehicle alone, and one group of (DMSO) at final concentration of 1%.
Each dose group contained 10 mice. Mice were injected subcutaneously (scruff of neck) with 0.5 ml of the appropriate sample. […]
Mouse body weights were determined twenty four hours following [^59 Fe] administration and the mice were sacrificed forty eight hours following the [^59 Fe] injection. Blood was collected from each animal by cardiac puncture and hematocrits were determined (heparin was used as the anticoagulant). Each blood sample (0.2 ml) was analyzed for [^59 Fe] incorporation using a Packard gamma counter. […]

increase in potency versus parent peptide, murine receptor line (murine EPO receptor): 10 fold
Substance: peptide (SEQ ID NO: 8)/PEG-dimer: PEG dimer of peptide SEQ ID NO: 8, lot not stated for the in vivo bioassay (GGTYSCHFGPLTWVCKPQGG-NH2; disulfide 6-15 (inferred); also: PEG covalent dimer)
in vivo activity of dimer relative to monomer (BDF1 mice): about 10 fold
